US20220298231A1 (AC IMMUNE, published 2022)

Experiments:
[1] = target: human full-length alpha-synuclein (human, UniProt P37840 1-140); assay: SPR, 100 nM monomer, relative to chimeric;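 further: SPR with antibody variants captured via anti-human Fc IgG on an amine-coupled chip, isotype IgG1 reference channel subtracted, dissociation rate fitted by 1:1 or heterogeneous ligand model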
Method: (§1) Flow channels (Fc) 1-8 were activated with a fresh solution of EDC/NHS (Amine Coupling Kit, 1:1 ratio of both reagents, GE Healthcare Life Sciences, BR100050). […] The chip was deactivated by 1 M ethanolamine-HCl (GE Healthcare Life Sciences, BR100050) at a flow rate of 10 μL/min for 420 s.
(§2) A human IgG1 isotype control diluted in running buffer 1×HBS-EP+ (GE Healthcare Life Sciences, BR100669) was captured onto Fc1 via anti-human Fc IgG at a flow rate of 10 μL/min. […] 10 mM glycine pH 1.5 as regeneration buffer was injected following every dissociation phase.
(§3) The data for reference channel Fc1 and buffer channel were subtracted to generate the sensorgrams. The experimental data was fitted by 1:1 binding model or heterogeneous ligand model.

alpha-synuclein fibrils = alpha-synuclein fibrils (Homo sapiens (Human), UniProt P37840 1-140); assay: SPR, 450 nM aggregates, relative to chimeric;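 further: surface plasmon resonance with anti-human Fc capture, human IgG1 isotype control channel and buffer run subtracted, dissociation rates fitted by 1:1 or heterogeneous ligand binding model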
Method: as §1, §2, §3

Binder	Relative koff [1]	Relative koff (alpha-synuclein fibrils)
hACI-7067-1101C8-Ab2_H2L1 (antibody, V domains shown, VH on human IgG1 constant, VL on human kappa constant) VH: EVQLVESGGGLVQPGGSLKLSCAASGFSFNIYAMNWVRQAPGKGLEWVGRIRSKSNAYATYYAASVKGRFTISRDDSKNTLYLQMNNLKTEDTAVYYCVRVGLRFYAMDYWGQGTLVTVSS VL: DVVMTQSPLSLPVTLGQPASISCRSSQSIVHSNANTYLEWYQQRPGQSPRLLIYKVSNRFSGVPDRFSGSGSGTDFTLKISRVEAEDLGVYYCFQGSQGPLTFGQGTKLEIK	2	0.5
hACI-7067-1101C8-Ab2_H3L3 (antibody, V domains shown, VH on human IgG1 constant, VL on human kappa constant) VH: EVQLVESGGGLVQPGGSLKLSCAASGFSFNIYAMNWVRQAPGKGLEWVGRIRSKSNAYATYYAASVKGRFTISRDDSKNTAYLQMNNLKTEDTAVYYCVRVGLRFYAMDYWGQGTLVTVSS VL: DVVMTQSPLSLPVTLGQPASISCRSSQSIVHSNANTYLEWFQQRPGQSPRLLIYKVSNRFSGVPDRFSGSGSGTDFTLKISRVEAEDLGVYYCFQGSQGPLTFGQGTKLEIK	0.1	0.2
hACI-7067-1101C8-Ab2_H1L4 (antibody, V domains shown, VH on human IgG1 constant, VL on human kappa constant) VH: EVQLVESGGGLVQPGGSLKLSCAASGFSFNIYAMNWVRQAPGKGLEWVARIRSKSNAYATYYAASVKGRFTISRDDSKNTLYLQMNNLKTEDTAVYYCVRVGLRFYAMDYWGQGTLVTVSS VL: DVVMTQSPLSLPVTLGQPASISCRSSQSLVHSNANTYLEWFQQRPGQSPRLLIYKVSNRFSGVPDRFSGSGSGTDFTLKISRVEAEDLGVYYCFQGSQGPLTFGQGTKLEIK	0.1	0.3
hACI-7067-1101C8-Ab2_H5L2 (antibody, V domains shown, VH on human IgG1 constant, VL on human kappa constant) VH: EVQLVESGGGLVQPGGSLKLSCAASGFSFNIYAMNWVRQAPGKGLEWVGRIRSKSNAYATYYAASVKGRFTISRDDSKNTLYLQMNNLKTEDTAVYYCTRVGLRFYAMDYWGQGTLVTVSS VL: DVVMTQSPLSLPVTLGQPASISCRSSQSLVHSNANTYLEWYQQRPGQSPRLLIYKVSNRFSGVPDRFSGSGSGTDFTLKISRVEAEDLGVYYCFQGSQGPLTFGQGTKLEIK	0.8	1.4
hACI-7067-1101C8-Ab2_H4L2 (antibody, V domains shown, VH on human IgG1 constant, VL on human kappa constant) VH: EVQLVESGGGLVQPGGSLKLSCAASGFTFNIYAMNWVRQAPGKGLEWVGRIRSKSNAYATYYAASVKGRFTISRDDSKNTLYLQMNNLKTEDTAVYYCVRVGLRFYAMDYWGQGTLVTVSS VL: DVVMTQSPLSLPVTLGQPASISCRSSQSLVHSNANTYLEWYQQRPGQSPRLLIYKVSNRFSGVPDRFSGSGSGTDFTLKISRVEAEDLGVYYCFQGSQGPLTFGQGTKLEIK	1.1	1.6
hACI-7067-1101C8-Ab2_H3L1 (antibody, V domains shown, VH on human IgG1 constant, VL on human kappa constant) VH: EVQLVESGGGLVQPGGSLKLSCAASGFSFNIYAMNWVRQAPGKGLEWVGRIRSKSNAYATYYAASVKGRFTISRDDSKNTAYLQMNNLKTEDTAVYYCVRVGLRFYAMDYWGQGTLVTVSS VL: DVVMTQSPLSLPVTLGQPASISCRSSQSIVHSNANTYLEWYQQRPGQSPRLLIYKVSNRFSGVPDRFSGSGSGTDFTLKISRVEAEDLGVYYCFQGSQGPLTFGQGTKLEIK	1	213
hACI-7067-1101C8-Ab2_H2L3 (antibody, V domains shown, VH on human IgG1 constant, VL on human kappa constant) VH: EVQLVESGGGLVQPGGSLKLSCAASGFSFNIYAMNWVRQAPGKGLEWVGRIRSKSNAYATYYAASVKGRFTISRDDSKNTLYLQMNNLKTEDTAVYYCVRVGLRFYAMDYWGQGTLVTVSS VL: DVVMTQSPLSLPVTLGQPASISCRSSQSIVHSNANTYLEWFQQRPGQSPRLLIYKVSNRFSGVPDRFSGSGSGTDFTLKISRVEAEDLGVYYCFQGSQGPLTFGQGTKLEIK	0.2	0.3
hACI-7067-1101C8-Ab2_H2L4 (antibody, V domains shown, VH on human IgG1 constant, VL on human kappa constant) VH: EVQLVESGGGLVQPGGSLKLSCAASGFSFNIYAMNWVRQAPGKGLEWVGRIRSKSNAYATYYAASVKGRFTISRDDSKNTLYLQMNNLKTEDTAVYYCVRVGLRFYAMDYWGQGTLVTVSS VL: DVVMTQSPLSLPVTLGQPASISCRSSQSLVHSNANTYLEWFQQRPGQSPRLLIYKVSNRFSGVPDRFSGSGSGTDFTLKISRVEAEDLGVYYCFQGSQGPLTFGQGTKLEIK	0.1	0.2

Other lines, results leading:

Relative koff [1]	Relative koff (alpha-synuclein fibrils)	Binder
1.3	851	hACI-7067-1101C8-Ab2_H1L1 (antibody, V domains shown, VH on human IgG1 constant, VL on human kappa constant) VH: EVQLVESGGGLVQPGGSLKLSCAASGFSFNIYAMNWVRQAPGKGLEWVARIRSKSNAYATYYAASVKGRFTISRDDSKNTLYLQMNNLKTEDTAVYYCVRVGLRFYAMDYWGQGTLVTVSS VL: DVVMTQSPLSLPVTLGQPASISCRSSQSIVHSNANTYLEWYQQRPGQSPRLLIYKVSNRFSGVPDRFSGSGSGTDFTLKISRVEAEDLGVYYCFQGSQGPLTFGQGTKLEIK
0.6	1230	hACI-7067-1101C8-Ab2_H3L2 (antibody, V domains shown, VH on human IgG1 constant, VL on human kappa constant) VH: EVQLVESGGGLVQPGGSLKLSCAASGFSFNIYAMNWVRQAPGKGLEWVGRIRSKSNAYATYYAASVKGRFTISRDDSKNTAYLQMNNLKTEDTAVYYCVRVGLRFYAMDYWGQGTLVTVSS VL: DVVMTQSPLSLPVTLGQPASISCRSSQSLVHSNANTYLEWYQQRPGQSPRLLIYKVSNRFSGVPDRFSGSGSGTDFTLKISRVEAEDLGVYYCFQGSQGPLTFGQGTKLEIK
0.1	0.3	hACI-7067-1101C8-Ab2_H4L4 (antibody, V domains shown, VH on human IgG1 constant, VL on human kappa constant) VH: EVQLVESGGGLVQPGGSLKLSCAASGFTFNIYAMNWVRQAPGKGLEWVGRIRSKSNAYATYYAASVKGRFTISRDDSKNTLYLQMNNLKTEDTAVYYCVRVGLRFYAMDYWGQGTLVTVSS VL: DVVMTQSPLSLPVTLGQPASISCRSSQSLVHSNANTYLEWFQQRPGQSPRLLIYKVSNRFSGVPDRFSGSGSGTDFTLKISRVEAEDLGVYYCFQGSQGPLTFGQGTKLEIK
0.1	0.2	hACI-7067-1101C8-Ab2_H5L4 (antibody, V domains shown, VH on human IgG1 constant, VL on human kappa constant) VH: EVQLVESGGGLVQPGGSLKLSCAASGFSFNIYAMNWVRQAPGKGLEWVGRIRSKSNAYATYYAASVKGRFTISRDDSKNTLYLQMNNLKTEDTAVYYCTRVGLRFYAMDYWGQGTLVTVSS VL: DVVMTQSPLSLPVTLGQPASISCRSSQSLVHSNANTYLEWFQQRPGQSPRLLIYKVSNRFSGVPDRFSGSGSGTDFTLKISRVEAEDLGVYYCFQGSQGPLTFGQGTKLEIK
1.1	1.9	hACI-7067-1101C8-Ab2_H2L2 (antibody, V domains shown, VH on human IgG1 constant, VL on human kappa constant) VH: EVQLVESGGGLVQPGGSLKLSCAASGFSFNIYAMNWVRQAPGKGLEWVGRIRSKSNAYATYYAASVKGRFTISRDDSKNTLYLQMNNLKTEDTAVYYCVRVGLRFYAMDYWGQGTLVTVSS VL: DVVMTQSPLSLPVTLGQPASISCRSSQSLVHSNANTYLEWYQQRPGQSPRLLIYKVSNRFSGVPDRFSGSGSGTDFTLKISRVEAEDLGVYYCFQGSQGPLTFGQGTKLEIK
0.2	0.3	hACI-7067-1101C8-Ab2_H1L3 (antibody, V domains shown, VH on human IgG1 constant, VL on human kappa constant) VH: EVQLVESGGGLVQPGGSLKLSCAASGFSFNIYAMNWVRQAPGKGLEWVARIRSKSNAYATYYAASVKGRFTISRDDSKNTLYLQMNNLKTEDTAVYYCVRVGLRFYAMDYWGQGTLVTVSS VL: DVVMTQSPLSLPVTLGQPASISCRSSQSIVHSNANTYLEWFQQRPGQSPRLLIYKVSNRFSGVPDRFSGSGSGTDFTLKISRVEAEDLGVYYCFQGSQGPLTFGQGTKLEIK
0.1	0.3	hACI-7067-1101C8-Ab2_H3L4 (antibody, V domains shown, VH on human IgG1 constant, VL on human kappa constant) VH: EVQLVESGGGLVQPGGSLKLSCAASGFSFNIYAMNWVRQAPGKGLEWVGRIRSKSNAYATYYAASVKGRFTISRDDSKNTAYLQMNNLKTEDTAVYYCVRVGLRFYAMDYWGQGTLVTVSS VL: DVVMTQSPLSLPVTLGQPASISCRSSQSLVHSNANTYLEWFQQRPGQSPRLLIYKVSNRFSGVPDRFSGSGSGTDFTLKISRVEAEDLGVYYCFQGSQGPLTFGQGTKLEIK
–	1420	hACI-7067-1101C8-Ab2_H7L1 (antibody, V domains shown, VH on human IgG1 constant, VL on human kappa constant) VH: EVQLVESGGGLVQPGGSLKLSCAASGFSFNIYAMNWVRQAPGKGLEWVARIRSKSNAYATYYAASVKGRFTISRDDSKNTLYLQMNNLKTEDTAVYYCVRVGLRFYATDYWGQGTLVTVSS VL: DVVMTQSPLSLPVTLGQPASISCRSSQSIVHSNANTYLEWYQQRPGQSPRLLIYKVSNRFSGVPDRFSGSGSGTDFTLKISRVEAEDLGVYYCFQGSQGPLTFGQGTKLEIK
0.2	0.2	hACI-7067-1101C8-Ab2_H5L3 (antibody, V domains shown, VH on human IgG1 constant, VL on human kappa constant) VH: EVQLVESGGGLVQPGGSLKLSCAASGFSFNIYAMNWVRQAPGKGLEWVGRIRSKSNAYATYYAASVKGRFTISRDDSKNTLYLQMNNLKTEDTAVYYCTRVGLRFYAMDYWGQGTLVTVSS VL: DVVMTQSPLSLPVTLGQPASISCRSSQSIVHSNANTYLEWFQQRPGQSPRLLIYKVSNRFSGVPDRFSGSGSGTDFTLKISRVEAEDLGVYYCFQGSQGPLTFGQGTKLEIK
1.9	0.5	hACI-7067-1101C8-Ab2_H4L1 (antibody, V domains shown, VH on human IgG1 constant, VL on human kappa constant) VH: EVQLVESGGGLVQPGGSLKLSCAASGFTFNIYAMNWVRQAPGKGLEWVGRIRSKSNAYATYYAASVKGRFTISRDDSKNTLYLQMNNLKTEDTAVYYCVRVGLRFYAMDYWGQGTLVTVSS VL: DVVMTQSPLSLPVTLGQPASISCRSSQSIVHSNANTYLEWYQQRPGQSPRLLIYKVSNRFSGVPDRFSGSGSGTDFTLKISRVEAEDLGVYYCFQGSQGPLTFGQGTKLEIK
0.2	0.3	hACI-7067-1101C8-Ab2_H4L3 (antibody, V domains shown, VH on human IgG1 constant, VL on human kappa constant) VH: EVQLVESGGGLVQPGGSLKLSCAASGFTFNIYAMNWVRQAPGKGLEWVGRIRSKSNAYATYYAASVKGRFTISRDDSKNTLYLQMNNLKTEDTAVYYCVRVGLRFYAMDYWGQGTLVTVSS VL: DVVMTQSPLSLPVTLGQPASISCRSSQSIVHSNANTYLEWFQQRPGQSPRLLIYKVSNRFSGVPDRFSGSGSGTDFTLKISRVEAEDLGVYYCFQGSQGPLTFGQGTKLEIK
0.6	131	hACI-7067-1101C8-Ab2_H1L2 (antibody, V domains shown, VH on human IgG1 constant, VL on human kappa constant) VH: EVQLVESGGGLVQPGGSLKLSCAASGFSFNIYAMNWVRQAPGKGLEWVARIRSKSNAYATYYAASVKGRFTISRDDSKNTLYLQMNNLKTEDTAVYYCVRVGLRFYAMDYWGQGTLVTVSS VL: DVVMTQSPLSLPVTLGQPASISCRSSQSLVHSNANTYLEWYQQRPGQSPRLLIYKVSNRFSGVPDRFSGSGSGTDFTLKISRVEAEDLGVYYCFQGSQGPLTFGQGTKLEIK
